Results taken from publication PMC5683647, “Comparison of histone-like HU protein DNA-binding properties and HU/IHF protein sequence alignment”.

Key:
[1] = test system: HU (Mycoplasma gallisepticum); assay: EMSA; conditions: 20 mM Tris-HCl pH 8.0, 7% glycerol, 40 mM NaCl (dsDNA length series, 200 nM DNA, gel 50 mM Tris-borate) or 150 mM NaCl (distorted structures, 10.5 nM DNA, gel …)
[2] = test system: HU (Spiroplasma melliferum); assay: EMSA; conditions: 20 mM Tris-HCl pH 8.0, 7% glycerol, 40 mM NaCl (dsDNA length series, 200 nM DNA, gel 50 mM Tris-borate) or 150 mM NaCl (distorted structures, 10.5 nM DNA, gel …)
[3] = target: T1, HU alpha (Escherichia coli) (UniProt P0ACF0); assay: EMSA; conditions: 20 mM Tris-HCl pH 8.0, 150 mM NaCl, 7% glycerol; 15 min; labelled DNA 10.5 nM; gel in 100 mM Tris-borate; temperature not stated; low values mean tight binding
T1 sequence: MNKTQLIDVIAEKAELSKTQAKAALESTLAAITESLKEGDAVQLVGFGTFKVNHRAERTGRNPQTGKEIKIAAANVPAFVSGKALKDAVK

[4] = target: T2, HU (Neisseria gonorrhoeae) (UniProt Q5F8J6); assay: EMSA; conditions: 20 mM Tris-HCl pH 8.0, 150 mM NaCl, 7% glycerol; 15 min; labelled DNA 10.5 nM; gel in 100 mM Tris-borate; temperature not stated; low values mean tight binding
T2 sequence: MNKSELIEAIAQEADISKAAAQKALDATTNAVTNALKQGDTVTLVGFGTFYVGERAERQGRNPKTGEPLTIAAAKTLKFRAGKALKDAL

[5] = target: T3, HU (Spiroplasma melliferum) (UniProt A0ABX5UAT3); assay: EMSA; conditions: 20 mM Tris-HCl pH 8.0, 150 mM NaCl, 7% glycerol; 15 min; labelled DNA 10.5 nM; gel in 100 mM Tris-borate; temperature not stated; low values mean tight binding
T3 sequence: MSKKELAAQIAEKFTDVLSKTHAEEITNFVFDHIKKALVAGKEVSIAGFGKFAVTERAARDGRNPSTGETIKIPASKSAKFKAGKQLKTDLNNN

[6] = target: T4, HU (Mycoplasma gallisepticum) (UniProt A0A0F6CKR5); assay: EMSA; conditions: 20 mM Tris-HCl pH 8.0, 150 mM NaCl, 7% glycerol; 15 min; labelled DNA 10.5 nM; gel in 100 mM Tris-borate; temperature not stated; low values mean tight binding
T4 sequence: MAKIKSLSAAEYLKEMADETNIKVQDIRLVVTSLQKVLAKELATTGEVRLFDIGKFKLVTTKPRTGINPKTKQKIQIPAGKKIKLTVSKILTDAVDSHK

HU [7] = target: T5, HU (Neisseria gonorrhoeae, UniProt Q5F8J6 1-89); assay: EMSA; conditions: 20 mM Tris-HCl pH 8.0, 7% glycerol, 40 mM NaCl (dsDNA length series, 200 nM DNA, gel 50 mM Tris-borate) or 150 mM NaCl (distorted structures, 10.5 nM DNA, gel …)
T5 sequence: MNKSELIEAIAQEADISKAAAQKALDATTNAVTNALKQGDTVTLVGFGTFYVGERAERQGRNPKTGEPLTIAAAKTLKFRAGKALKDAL

HU [8] = target: T5, HU; assay: EMSA; 150 mM NaCl; 20 mM Tris-HCl pH 8.0, 7% glycerol, 40 mM NaCl (dsDNA length series, 200 nM DNA, gel 50 mM Tris-borate) or 150 mM NaCl (distorted structures, 10.5 nM DNA, gel 100 mM Tris-borate); 15 min, temperature not stated; conditions: protein: recombinant; tags: N-terminal 6xHisTEV removed by TEV protease; chain copies: 2; label: 5'-HEX on strand 1; four-way junction 1:2 2:3 3:4 4:1
HU [9] = target: T5, HU; assay: EMSA; 20 mM Tris-HCl pH 8.0, 150 mM NaCl, 7% glycerol; 15 min; labelled DNA 10.5 nM; gel in 100 mM Tris-borate; temperature not stated; conditions: protein: recombinant, tags: N-terminal 6xHisTEV removed by TEV protease, chain copies: 2, label: 5'-HEX on strand 1
HU [10] = target: HU (Mycoplasma gallisepticum, UniProt A0A0F6CKR5 1-99); assay: as above; conditions: protein: recombinant, tags: N-terminal 6xHisTEV removed by TEV protease, chain copies: 2, label: 5'-HEX on strand 1
HU [11] = target: T6, HU (Spiroplasma melliferum, UniProt A0ABX5UAT3 1-94); assay: as above; conditions: protein: recombinant, tags: N-terminal 6xHisTEV removed by TEV protease, chain copies: 2, label: 5'-HEX on strand 1
T6 sequence: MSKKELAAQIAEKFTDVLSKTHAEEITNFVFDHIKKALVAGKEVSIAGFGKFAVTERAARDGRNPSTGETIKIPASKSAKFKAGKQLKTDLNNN

HU alpha [12] = target: T7, HU alpha (Escherichia coli, UniProt P0ACF0 1-90); assay: as above; conditions: protein: recombinant, tags: N-terminal 6xHisTEV removed by TEV protease, chain copies: 2, label: 5'-HEX on strand 1
HU [13] = target: T5, HU; assay: EMSA; 40 mM NaCl; 3 complexes; 20 mM Tris-HCl pH 8.0, 7% glycerol, 40 mM NaCl (dsDNA length series, 200 nM DNA, gel 50 mM Tris-borate) or 150 mM NaCl (distorted structures, 10.5 nM DNA, gel 100 mM Tris-borate); 15 min, temperature not stated; conditions: protein: recombinant; tags: N-terminal 6xHisTEV removed by TEV protease; chain copies: 2; label: 5'-HEX; blunt
HU [14] = target: T5, HU; assay: EMSA; 40 mM NaCl; 2 complexes; 20 mM Tris-HCl pH 8.0, 7% glycerol, 40 mM NaCl (dsDNA length series, 200 nM DNA, gel 50 mM Tris-borate) or 150 mM NaCl (distorted structures, 10.5 nM DNA, gel 100 mM Tris-borate); 15 min, temperature not stated; conditions: protein: recombinant; tags: N-terminal 6xHisTEV removed by TEV protease; chain copies: 2; label: 5'-HEX; blunt
HU alpha [15] = target: T7, HU alpha; assay: EMSA; 40 mM NaCl; 20 mM Tris-HCl pH 8.0, 7% glycerol, 40 mM NaCl (dsDNA length series, 200 nM DNA, gel 50 mM Tris-borate) or 150 mM NaCl (distorted structures, 10.5 nM DNA, gel 100 mM Tris-borate); 15 min, temperature not stated; conditions: protein: recombinant; tags: N-terminal 6xHisTEV removed by TEV protease; chain copies: 2; label: 5'-HEX; blunt
HU alpha [16] = target: T7, HU alpha; assay: EMSA; 40 mM NaCl; 3 complexes; 20 mM Tris-HCl pH 8.0, 7% glycerol, 40 mM NaCl (dsDNA length series, 200 nM DNA, gel 50 mM Tris-borate) or 150 mM NaCl (distorted structures, 10.5 nM DNA, gel 100 mM Tris-borate); 15 min, temperature not stated; conditions: protein: recombinant; tags: N-terminal 6xHisTEV removed by TEV protease; chain copies: 2; label: 5'-HEX; blunt
HU [17] = target: T5, HU; assay: EMSA; 40 mM NaCl; 4 complexes; 20 mM Tris-HCl pH 8.0, 7% glycerol, 40 mM NaCl (dsDNA length series, 200 nM DNA, gel 50 mM Tris-borate) or 150 mM NaCl (distorted structures, 10.5 nM DNA, gel 100 mM Tris-borate); 15 min, temperature not stated; conditions: protein: recombinant; tags: N-terminal 6xHisTEV removed by TEV protease; chain copies: 2; label: 5'-HEX; blunt
[18] = four-way junction 1:2 2:3 3:4 4:1
[19] = duplex with 3 unpaired A in strand 2
[20] = duplex with 1 unpaired A in strand 2
[21] = duplex with 7 unpaired A in strand 2

## AGTCTAGAGTGCAGTTGAGTCCTTGCTACGACGGATCCCTTAGGTCAG / CTGACCTAAGGGATCCGTCGTAGCAAGAGACTCAACTGCACTCTAGACT [bulge A1]
[1]
  Kd: 0.132 µM
[2]
  Kd: 0.035 µM

## AGTCTAGAGTGCAGTTGAGTCCTTGCTACGACGGATCCCTTAGGTCAG / CTGACCTAAGGGATCCGTCGTAGCAAGGGGCTGATACCGGAAGCTTCT / AGAAGCTTCCGGTATCAGCCTGAGCGGTGGTTGAATTCCT / AGGAATTCAACCACCGCTCAACTCAACTGCACTCTAGACT [four-way junction (J)]
[1]
  binding signal (fold affinity vs nicked DNA): 10

## AGTCTAGAGTGCAGTTGAGTCCTTGCTACGACGGATCCCTTAGGTCAG (double strand) [D48 dsDNA (ds)]
[3]
  Kd: 0.293 µM
[4]
  Kd: 1.1 µM
[5]
  Kd: 0.117 µM
[6]
  Kd: 0.44 µM

## DNA invasion (inv)
HU [7]
  binding signal (fold affinity vs nicked DNA): 5
[1]
  binding signal (fold affinity vs nicked DNA): 20

B1: four-way junction (J) (structured_DNA)
DNA 1: AGTCTAGAGTGCAGTTGAGTCCTTGCTACGACGGATCCCTTAGGTCAG
DNA 2: CTGACCTAAGGGATCCGTCGTAGCAAGGGGCTGATACCGGAAGCTTCT
DNA 3: AGAAGCTTCCGGTATCAGCCTGAGCGGTGGTTGAATTCCT
DNA 4: AGGAATTCAACCACCGCTCAACTCAACTGCACTCTAGACT
HU [8]
  binding signal: 4 fold affinity vs nicked DNA
HU [9]; [18]
  Kd: 0.11 ± 0.025 µM
HU [10]; [18]
  Kd: 0.026 ± 0.006 µM
HU [11]; [18]
  Kd: 0.035 ± 0.008 µM
HU alpha [12]; [18]
  Kd: 0.044 ± 0.01 µM

B2: overhang (ov) (structured_DNA)
DNA 1: AGTCTAGAGTGCAGTTGAGTCCTTGCTACGACGGATCCCTTAGGTCAG
DNA 2: ACTCAACTGCACTCTAGACT
HU [9]; 3' overhang 28 nt
  Kd: 0.12 ± 0.025 µM
HU [10]; 3' overhang 28 nt
  Kd: 0.03 ± 0.008 µM
HU [11]; 3' overhang 28 nt
  Kd: 0.045 ± 0.01 µM
HU alpha [12]; 3' overhang 28 nt
  Kd: 0.05 ± 0.015 µM

B3: bulge A3 (structured_DNA)
DNA 1: AGTCTAGAGTGCAGTTGAGTCCTTGCTACGACGGATCCCTTAGGTCAG
DNA 2: CTGACCTAAGGGATCCGTCGTAGCAAGAAAGACTCAACTGCACTCTAGACT
HU [9]; [19]
  Kd: 0.44 ± 0.12 µM
HU [10]; [19]
  Kd: 0.132 ± 0.03 µM
HU [11]; [19]
  Kd: 0.035 ± 0.008 µM
HU alpha [12]; [19]
  Kd: 0.088 ± 0.02 µM

B4: bulge A1 (structured_DNA)
DNA 1: AGTCTAGAGTGCAGTTGAGTCCTTGCTACGACGGATCCCTTAGGTCAG
DNA 2: CTGACCTAAGGGATCCGTCGTAGCAAGAGACTCAACTGCACTCTAGACT
HU [9]; [20]
  Kd: 0.44 ± 0.12 µM
HU [10]; [20]
  Kd: 0.132 ± 0.03 µM
HU [11]; [20]
  Kd: 0.035 ± 0.008 µM
HU alpha [12]; [20]
  Kd: 0.088 ± 0.02 µM

B5: bulge A7 (structured_DNA)
DNA 1: AGTCTAGAGTGCAGTTGAGTCCTTGCTACGACGGATCCCTTAGGTCAG
DNA 2: CTGACCTAAGGGATCCGTCGTAGCAAGAAAAAAAGACTCAACTGCACTCTAGACT
HU [9]; [21]
  Kd: 0.22 ± 0.06 µM
HU [10]; [21]
  Kd: 0.044 ± 0.012 µM
HU [11]; [21]
  Kd: 0.012 ± 0.004 µM
HU alpha [12]; [21]
  Kd: 0.044 ± 0.01 µM

B6: nicked DNA (n) (structured_DNA)
DNA 1: AGTCTAGAGTGCAGTTGAGTCCTTGCTACGACGGATCCCTTAGGTCAG
DNA 2: CTGACCTAAGGGATCCGTCGTAGCAAGG
DNA 3: ACTCAACTGCACTCTAGACT
HU [9]; nick 1:2 1:3
  Kd: 0.44 ± 0.1 µM
HU [10]; nick 1:2 1:3
  Kd: 0.264 ± 0.07 µM
HU [11]; nick 1:2 1:3
  Kd: 0.035 ± 0.008 µM
HU alpha [12]; nick 1:2 1:3
  Kd: 0.088 ± 0.02 µM

B7: D27 dsDNA (dsDNA)
DNA 1: AGTCTAGAGTGCAGTTGAGTCCTTGCT
DNA 2: AGCAAGGACTCAACTGCACTCTAGACT
HU [13]
  binding result: binds

B8: D21 dsDNA (dsDNA)
DNA 1: AGTCTAGAGTGCAGTTGAGTC
DNA 2: GACTCAACTGCACTCTAGACT
HU [14]
  binding result: binds
HU alpha [15]
  binding result: binds

B9: D29 dsDNA (dsDNA)
DNA 1: AGTCTAGAGTGCAGTTGAGTCCTTGCTAC
DNA 2: GTAGCAAGGACTCAACTGCACTCTAGACT
HU alpha [16]
  binding result: binds

B10: D36 dsDNA (dsDNA)
DNA 1: AGTCTAGAGTGCAGTTGAGTCCTTGCTACGACGGAT
DNA 2: ATCCGTCGTAGCAAGGACTCAACTGCACTCTAGACT
HU alpha [15]
  binding result: binds
HU [17]
  binding result: binds
